Source: PMC10713552 (Communications Biology, 2023)

B1: 0304-IN3_T65G (antibody, V domains shown)
VH: QVQLQQWGPGLVNPSETLSLTCSVSGGSFATENYYWSWIRQHPGEGLEWIGNIYFSGNGYYNPSLNNRFTISFDTSKNHLSLKLPSVTAADTAVYYCARGTIYFDISGYRRVDPFHIWGQGTMVIVSS
VL: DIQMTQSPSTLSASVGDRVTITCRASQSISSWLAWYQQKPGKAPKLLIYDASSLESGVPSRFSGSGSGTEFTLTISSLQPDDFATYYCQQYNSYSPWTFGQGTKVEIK
notes: source: Expi293F, transfected
B2: 0339-MN3_T65D (antibody, V domains shown)
VH: QVQLQQWGPGLVNPSETLSLTCSVSGGSFATENYYWSWIRQHPGEGLEWIGNIYFSGNDYYNPSLNNRFTISFDTSKNHLSLKLPSVTAADTAVYYCARGTIYFDMSGYRRVDPFHIWGQGTMVIVSS
VL: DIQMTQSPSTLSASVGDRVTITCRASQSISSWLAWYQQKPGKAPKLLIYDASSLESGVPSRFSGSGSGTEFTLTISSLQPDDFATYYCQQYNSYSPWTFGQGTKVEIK
notes: source: Expi293F, transfected
B3: 0368-N3_T65P (antibody, V domains shown)
VH: QVQLQQWGPGLVNPSETLSLTCSVSGGSFATENYYWSWIRQHPGEGLEWIGNIYFSGNPYYNPSLNNRFTISFDTSKNHLSLKLPSVTAADTAVYYCARGTIYFDRSGYRRVDPFHIWGQGTMVIVSS
VL: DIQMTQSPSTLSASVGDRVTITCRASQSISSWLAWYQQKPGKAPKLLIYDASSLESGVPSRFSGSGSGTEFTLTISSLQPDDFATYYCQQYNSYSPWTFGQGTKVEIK
notes: source: Expi293F, transfected
B4: 0328-LN3_T65M (antibody, V domains shown)
VH: QVQLQQWGPGLVNPSETLSLTCSVSGGSFATENYYWSWIRQHPGEGLEWIGNIYFSGNMYYNPSLNNRFTISFDTSKNHLSLKLPSVTAADTAVYYCARGTIYFDLSGYRRVDPFHIWGQGTMVIVSS
VL: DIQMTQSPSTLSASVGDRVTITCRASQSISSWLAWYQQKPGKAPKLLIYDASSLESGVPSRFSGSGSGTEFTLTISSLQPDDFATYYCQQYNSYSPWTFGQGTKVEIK
notes: source: Expi293F, transfected
B5: 0376-YN3_T65A (antibody, V domains shown)
VH: QVQLQQWGPGLVNPSETLSLTCSVSGGSFATENYYWSWIRQHPGEGLEWIGNIYFSGNAYYNPSLNNRFTISFDTSKNHLSLKLPSVTAADTAVYYCARGTIYFDYSGYRRVDPFHIWGQGTMVIVSS
VL: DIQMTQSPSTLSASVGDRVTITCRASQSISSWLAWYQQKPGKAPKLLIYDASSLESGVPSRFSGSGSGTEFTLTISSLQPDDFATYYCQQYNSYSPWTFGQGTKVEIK
notes: source: Expi293F, transfected
B6: 0361-N3_T65G (antibody, V domains shown)
VH: QVQLQQWGPGLVNPSETLSLTCSVSGGSFATENYYWSWIRQHPGEGLEWIGNIYFSGNGYYNPSLNNRFTISFDTSKNHLSLKLPSVTAADTAVYYCARGTIYFDRSGYRRVDPFHIWGQGTMVIVSS
VL: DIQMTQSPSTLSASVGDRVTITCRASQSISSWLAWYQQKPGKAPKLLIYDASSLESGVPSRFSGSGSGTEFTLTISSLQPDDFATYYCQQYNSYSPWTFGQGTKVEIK
notes: source: Expi293F, transfected
B7: 0336-LN3_T65W (antibody, V domains shown)
VH: QVQLQQWGPGLVNPSETLSLTCSVSGGSFATENYYWSWIRQHPGEGLEWIGNIYFSGNWYYNPSLNNRFTISFDTSKNHLSLKLPSVTAADTAVYYCARGTIYFDLSGYRRVDPFHIWGQGTMVIVSS
VL: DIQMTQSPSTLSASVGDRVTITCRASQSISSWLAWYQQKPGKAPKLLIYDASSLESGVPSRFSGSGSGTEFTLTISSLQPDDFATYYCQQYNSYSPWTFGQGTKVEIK
notes: source: Expi293F, transfected
B8: 0366-N3_T65M (antibody, V domains shown)
VH: QVQLQQWGPGLVNPSETLSLTCSVSGGSFATENYYWSWIRQHPGEGLEWIGNIYFSGNMYYNPSLNNRFTISFDTSKNHLSLKLPSVTAADTAVYYCARGTIYFDRSGYRRVDPFHIWGQGTMVIVSS
VL: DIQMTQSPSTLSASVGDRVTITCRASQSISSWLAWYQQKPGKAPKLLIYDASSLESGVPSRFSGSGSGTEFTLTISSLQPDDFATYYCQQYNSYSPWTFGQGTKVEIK
notes: source: Expi293F, transfected
B9: 0322-LN3_T65F (antibody, V domains shown)
VH: QVQLQQWGPGLVNPSETLSLTCSVSGGSFATENYYWSWIRQHPGEGLEWIGNIYFSGNFYYNPSLNNRFTISFDTSKNHLSLKLPSVTAADTAVYYCARGTIYFDLSGYRRVDPFHIWGQGTMVIVSS
VL: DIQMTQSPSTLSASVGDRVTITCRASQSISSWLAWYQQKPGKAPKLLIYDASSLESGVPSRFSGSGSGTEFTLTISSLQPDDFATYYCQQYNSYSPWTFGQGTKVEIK
notes: source: Expi293F, transfected
B10: 0343-MN3_T65H (antibody, V domains shown)
VH: QVQLQQWGPGLVNPSETLSLTCSVSGGSFATENYYWSWIRQHPGEGLEWIGNIYFSGNHYYNPSLNNRFTISFDTSKNHLSLKLPSVTAADTAVYYCARGTIYFDMSGYRRVDPFHIWGQGTMVIVSS
VL: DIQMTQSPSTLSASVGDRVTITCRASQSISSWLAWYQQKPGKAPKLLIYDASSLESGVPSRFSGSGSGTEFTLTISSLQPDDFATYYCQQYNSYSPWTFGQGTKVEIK
notes: source: Expi293F, transfected
B11: 0384-YN3_T65L (antibody, V domains shown)
VH: QVQLQQWGPGLVNPSETLSLTCSVSGGSFATENYYWSWIRQHPGEGLEWIGNIYFSGNLYYNPSLNNRFTISFDTSKNHLSLKLPSVTAADTAVYYCARGTIYFDYSGYRRVDPFHIWGQGTMVIVSS
VL: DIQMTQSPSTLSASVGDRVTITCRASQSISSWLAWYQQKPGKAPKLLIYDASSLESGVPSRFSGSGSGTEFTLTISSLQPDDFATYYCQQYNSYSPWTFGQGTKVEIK
notes: source: Expi293F, transfected
B12: 0325-LN3_T65I (antibody, V domains shown)
VH: QVQLQQWGPGLVNPSETLSLTCSVSGGSFATENYYWSWIRQHPGEGLEWIGNIYFSGNIYYNPSLNNRFTISFDTSKNHLSLKLPSVTAADTAVYYCARGTIYFDLSGYRRVDPFHIWGQGTMVIVSS
VL: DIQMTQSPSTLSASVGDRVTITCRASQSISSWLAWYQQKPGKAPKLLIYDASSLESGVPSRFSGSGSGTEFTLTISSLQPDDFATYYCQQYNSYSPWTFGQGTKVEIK
notes: source: Expi293F, transfected
B13: 0393-YN3_T65W (antibody, V domains shown)
VH: QVQLQQWGPGLVNPSETLSLTCSVSGGSFATENYYWSWIRQHPGEGLEWIGNIYFSGNWYYNPSLNNRFTISFDTSKNHLSLKLPSVTAADTAVYYCARGTIYFDYSGYRRVDPFHIWGQGTMVIVSS
VL: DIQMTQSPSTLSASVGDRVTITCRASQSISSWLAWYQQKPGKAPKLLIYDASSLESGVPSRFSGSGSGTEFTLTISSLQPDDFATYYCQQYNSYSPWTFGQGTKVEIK
notes: source: Expi293F, transfected
B14: 0355-MN3_T65W (antibody, V domains shown)
VH: QVQLQQWGPGLVNPSETLSLTCSVSGGSFATENYYWSWIRQHPGEGLEWIGNIYFSGNWYYNPSLNNRFTISFDTSKNHLSLKLPSVTAADTAVYYCARGTIYFDMSGYRRVDPFHIWGQGTMVIVSS
VL: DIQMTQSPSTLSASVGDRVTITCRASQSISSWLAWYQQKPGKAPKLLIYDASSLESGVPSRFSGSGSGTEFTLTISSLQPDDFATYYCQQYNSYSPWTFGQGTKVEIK
notes: source: Expi293F, transfected
B15: 0323-LN3_T65G (antibody, V domains shown)
VH: QVQLQQWGPGLVNPSETLSLTCSVSGGSFATENYYWSWIRQHPGEGLEWIGNIYFSGNGYYNPSLNNRFTISFDTSKNHLSLKLPSVTAADTAVYYCARGTIYFDLSGYRRVDPFHIWGQGTMVIVSS
VL: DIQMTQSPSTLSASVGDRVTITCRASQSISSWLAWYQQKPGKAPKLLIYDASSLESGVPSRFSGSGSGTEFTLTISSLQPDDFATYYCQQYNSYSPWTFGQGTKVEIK
notes: source: Expi293F, transfected
B16: 0320-LN3_T65D (antibody, V domains shown)
VH: QVQLQQWGPGLVNPSETLSLTCSVSGGSFATENYYWSWIRQHPGEGLEWIGNIYFSGNDYYNPSLNNRFTISFDTSKNHLSLKLPSVTAADTAVYYCARGTIYFDLSGYRRVDPFHIWGQGTMVIVSS
VL: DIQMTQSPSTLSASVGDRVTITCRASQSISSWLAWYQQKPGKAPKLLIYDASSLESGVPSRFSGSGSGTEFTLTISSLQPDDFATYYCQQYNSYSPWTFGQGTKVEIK
notes: source: Expi293F, transfected
B17: 0357-N3_T65A (antibody, V domains shown)
VH: QVQLQQWGPGLVNPSETLSLTCSVSGGSFATENYYWSWIRQHPGEGLEWIGNIYFSGNAYYNPSLNNRFTISFDTSKNHLSLKLPSVTAADTAVYYCARGTIYFDRSGYRRVDPFHIWGQGTMVIVSS
VL: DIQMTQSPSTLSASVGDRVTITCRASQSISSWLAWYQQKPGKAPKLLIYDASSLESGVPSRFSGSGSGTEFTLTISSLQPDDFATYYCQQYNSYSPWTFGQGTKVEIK
notes: source: Expi293F, transfected
B18: 0375-N3_T65Y (antibody, V domains shown)
VH: QVQLQQWGPGLVNPSETLSLTCSVSGGSFATENYYWSWIRQHPGEGLEWIGNIYFSGNYYYNPSLNNRFTISFDTSKNHLSLKLPSVTAADTAVYYCARGTIYFDRSGYRRVDPFHIWGQGTMVIVSS
VL: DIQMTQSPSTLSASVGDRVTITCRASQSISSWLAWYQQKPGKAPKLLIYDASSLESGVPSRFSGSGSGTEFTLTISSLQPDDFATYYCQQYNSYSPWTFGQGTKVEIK
notes: source: Expi293F, transfected
B19: 0321-LN3_T65E (antibody, V domains shown)
VH: QVQLQQWGPGLVNPSETLSLTCSVSGGSFATENYYWSWIRQHPGEGLEWIGNIYFSGNEYYNPSLNNRFTISFDTSKNHLSLKLPSVTAADTAVYYCARGTIYFDLSGYRRVDPFHIWGQGTMVIVSS
VL: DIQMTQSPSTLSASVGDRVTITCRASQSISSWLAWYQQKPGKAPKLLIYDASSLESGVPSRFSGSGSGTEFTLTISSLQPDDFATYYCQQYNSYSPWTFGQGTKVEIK
notes: source: Expi293F, transfected
B20: 0365-N3_T65L (antibody, V domains shown)
VH: QVQLQQWGPGLVNPSETLSLTCSVSGGSFATENYYWSWIRQHPGEGLEWIGNIYFSGNLYYNPSLNNRFTISFDTSKNHLSLKLPSVTAADTAVYYCARGTIYFDRSGYRRVDPFHIWGQGTMVIVSS
VL: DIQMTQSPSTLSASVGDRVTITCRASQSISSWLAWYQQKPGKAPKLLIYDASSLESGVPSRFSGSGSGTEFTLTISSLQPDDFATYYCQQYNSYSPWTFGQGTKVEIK
notes: source: Expi293F, transfected
B21: 0389-YN3_T65R (antibody, V domains shown)
VH: QVQLQQWGPGLVNPSETLSLTCSVSGGSFATENYYWSWIRQHPGEGLEWIGNIYFSGNRYYNPSLNNRFTISFDTSKNHLSLKLPSVTAADTAVYYCARGTIYFDYSGYRRVDPFHIWGQGTMVIVSS
VL: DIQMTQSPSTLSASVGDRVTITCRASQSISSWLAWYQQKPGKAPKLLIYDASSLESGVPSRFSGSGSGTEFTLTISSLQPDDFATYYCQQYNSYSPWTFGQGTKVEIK
notes: source: Expi293F, transfected
B22: 0390-YN3_T65S (antibody, V domains shown)
VH: QVQLQQWGPGLVNPSETLSLTCSVSGGSFATENYYWSWIRQHPGEGLEWIGNIYFSGNSYYNPSLNNRFTISFDTSKNHLSLKLPSVTAADTAVYYCARGTIYFDYSGYRRVDPFHIWGQGTMVIVSS
VL: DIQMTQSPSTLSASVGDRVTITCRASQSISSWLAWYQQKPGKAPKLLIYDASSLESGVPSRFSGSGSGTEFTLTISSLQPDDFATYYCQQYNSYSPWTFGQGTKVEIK
notes: source: Expi293F, transfected
B23: 0382-YN3_T65I (antibody, V domains shown)
VH: QVQLQQWGPGLVNPSETLSLTCSVSGGSFATENYYWSWIRQHPGEGLEWIGNIYFSGNIYYNPSLNNRFTISFDTSKNHLSLKLPSVTAADTAVYYCARGTIYFDYSGYRRVDPFHIWGQGTMVIVSS
VL: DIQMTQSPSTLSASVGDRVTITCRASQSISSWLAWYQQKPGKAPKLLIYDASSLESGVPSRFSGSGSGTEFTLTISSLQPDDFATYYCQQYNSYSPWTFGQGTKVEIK
notes: source: Expi293F, transfected
B24: 0364-N3_T65K (antibody, V domains shown)
VH: QVQLQQWGPGLVNPSETLSLTCSVSGGSFATENYYWSWIRQHPGEGLEWIGNIYFSGNKYYNPSLNNRFTISFDTSKNHLSLKLPSVTAADTAVYYCARGTIYFDRSGYRRVDPFHIWGQGTMVIVSS
VL: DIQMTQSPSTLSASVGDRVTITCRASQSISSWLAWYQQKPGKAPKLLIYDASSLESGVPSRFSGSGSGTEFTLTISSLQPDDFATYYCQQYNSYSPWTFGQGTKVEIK
notes: source: Expi293F, transfected
B25: 0369-N3_T65Q (antibody, V domains shown)
VH: QVQLQQWGPGLVNPSETLSLTCSVSGGSFATENYYWSWIRQHPGEGLEWIGNIYFSGNQYYNPSLNNRFTISFDTSKNHLSLKLPSVTAADTAVYYCARGTIYFDRSGYRRVDPFHIWGQGTMVIVSS
VL: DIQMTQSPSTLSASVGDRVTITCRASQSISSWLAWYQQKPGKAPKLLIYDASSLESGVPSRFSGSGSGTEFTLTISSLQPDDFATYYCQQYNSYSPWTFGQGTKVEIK
notes: source: Expi293F, transfected
B26: 0385-YN3_T65M (antibody, V domains shown)
VH: QVQLQQWGPGLVNPSETLSLTCSVSGGSFATENYYWSWIRQHPGEGLEWIGNIYFSGNMYYNPSLNNRFTISFDTSKNHLSLKLPSVTAADTAVYYCARGTIYFDYSGYRRVDPFHIWGQGTMVIVSS
VL: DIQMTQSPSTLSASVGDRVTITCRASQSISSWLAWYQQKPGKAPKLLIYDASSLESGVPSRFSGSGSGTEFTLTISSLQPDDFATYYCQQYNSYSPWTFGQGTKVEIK
notes: source: Expi293F, transfected
B27: 0387-YN3_T65P (antibody, V domains shown)
VH: QVQLQQWGPGLVNPSETLSLTCSVSGGSFATENYYWSWIRQHPGEGLEWIGNIYFSGNPYYNPSLNNRFTISFDTSKNHLSLKLPSVTAADTAVYYCARGTIYFDYSGYRRVDPFHIWGQGTMVIVSS
VL: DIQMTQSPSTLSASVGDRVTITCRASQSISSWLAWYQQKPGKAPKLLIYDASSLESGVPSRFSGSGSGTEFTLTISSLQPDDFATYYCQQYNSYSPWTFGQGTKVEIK
notes: source: Expi293F, transfected
B28: 0310-IN3_T65N (antibody, V domains shown)
VH: QVQLQQWGPGLVNPSETLSLTCSVSGGSFATENYYWSWIRQHPGEGLEWIGNIYFSGNNYYNPSLNNRFTISFDTSKNHLSLKLPSVTAADTAVYYCARGTIYFDISGYRRVDPFHIWGQGTMVIVSS
VL: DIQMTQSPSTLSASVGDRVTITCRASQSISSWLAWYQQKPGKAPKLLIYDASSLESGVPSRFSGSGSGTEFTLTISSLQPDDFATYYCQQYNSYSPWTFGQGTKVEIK
notes: source: Expi293F, transfected

Biological target: D614G-Hexapro (WT) spike ectodomain (SARS-CoV-2 Wuhan-Hu-1 D614G, D614G)
Test: BLI

Row | Binder | Kd | koff | kon
1 | B1 | 45.4 nM | 0.000221 s⁻¹ | 4880 M⁻¹ s⁻¹
2 | B2 | 5.95 nM | 2e-05 s⁻¹ | 3350 M⁻¹ s⁻¹
3 | B3 | 52.9 nM | 0.000253 s⁻¹ | 4790 M⁻¹ s⁻¹
4 | B4 | 2.99 nM | 0.00124 s⁻¹ | 415000 M⁻¹ s⁻¹
5 | B5 | 1.82 nM | 0.000425 s⁻¹ | 233000 M⁻¹ s⁻¹
6 | B6 | 549 nM | 0.000177 s⁻¹ | 323 M⁻¹ s⁻¹
7 | B7 | 0.15 nM | 0.000117 s⁻¹ | 782000 M⁻¹ s⁻¹
8 | B8 | 8.15 nM | 2.08e-06 s⁻¹ | 255 M⁻¹ s⁻¹
9 | B9 | 2.52 nM | 0.000726 s⁻¹ | 288000 M⁻¹ s⁻¹
10 | B10 | 7760 nM | 0.000643 s⁻¹ | 82.8 M⁻¹ s⁻¹
11 | B11 | 4.26 nM | 0.000957 s⁻¹ | 225000 M⁻¹ s⁻¹
12 | B12 | 6.57 nM | 0.00131 s⁻¹ | 199000 M⁻¹ s⁻¹
13 | B13 | 189 nM | 0.000535 s⁻¹ | 2840 M⁻¹ s⁻¹
14 | B14 | 0.474 nM | 0.00041 s⁻¹ | 865000 M⁻¹ s⁻¹
15 | B15 | 145 nM | 0.000932 s⁻¹ | 6420 M⁻¹ s⁻¹
16 | B16 | 226 nM | 0.000716 s⁻¹ | 3160 M⁻¹ s⁻¹
17 | B17 | 0.562 nM | 0.000124 s⁻¹ | 221000 M⁻¹ s⁻¹
18 | B18 | – | – | 265 M⁻¹ s⁻¹
19 | B19 | 378 nM | 0.00157 s⁻¹ | 4150 M⁻¹ s⁻¹
20 | B20 | 387 nM | 0.000123 s⁻¹ | 318 M⁻¹ s⁻¹
21 | B21 | 839 nM | 0.00107 s⁻¹ | 1280 M⁻¹ s⁻¹
22 | B22 | 830 nM | 0.00105 s⁻¹ | 1270 M⁻¹ s⁻¹
23 | B23 | 2690 nM | 0.000811 s⁻¹ | 302 M⁻¹ s⁻¹
24 | B24 | 288 nM | 9.92e-05 s⁻¹ | 344 M⁻¹ s⁻¹
25 | B25 | 65.4 nM | 0.000113 s⁻¹ | 1730 M⁻¹ s⁻¹
26 | B26 | 9.93 nM | 0.00157 s⁻¹ | 158000 M⁻¹ s⁻¹

Biological target: Omicron BA.1 spike protein ectodomain (BLI) (SARS-CoV-2 Omicron BA.1, strain)
Test: BLI

Row | Binder | Kd | koff | kon
27 | B27 | 9.21 nM | 9.1e-05 s⁻¹ | 9880 M⁻¹ s⁻¹
28 | B28 | 15.2 nM | 0.000949 s⁻¹ | 62500 M⁻¹ s⁻¹
